Results reported in publication PMC314469, “Protein Interaction Networks by Proteome Peptide Scanning” (PLoS Biology, 2004).

T1: amphyphisin SH3 (AMPH_HUMAN), P49418
T1 chain: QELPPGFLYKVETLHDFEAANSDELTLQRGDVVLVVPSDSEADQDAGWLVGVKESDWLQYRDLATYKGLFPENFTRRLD


Target: endophilin SH3 (SH3G2_HUMAN), Q99962
Assay: SPOT array

Row | normalised SPOT signal, Boehringer light units (BLU); mean over the file's lines of this peptide | Binder
1 | 464 | NSRNPRRPPPSSVN [Q96T16 198-211]
2 | 182 | PAPPPVKPPPSPVN [Q8TF74 224-238]
3 | 3150 | ARLPPPRPQRPAET [Q9NQE0 226-239]
4 | 73.8 | ARPELRRPGVQGIP [Q9Y358 352-365]
5 | 104 | PAPGLRRPLSPPAA [Q9UK39 24-37]
6 | 7710 | PATAPARPLRLPSG [Q9UPV8 1233-1246]
7 | 81.5 | NSPTLERPGRKRKW [Q9H247 116-129]
8 | 84 | NVPIPERPPPVPPP [Q96BJ8 361-375]
9 | 48.9 | PAASPRRPAPRTGP [Q96S08 21-34]
10 | 64.8 | PAHPFRRPKLSGRS [Q9ULT6 397-410]
11 | 2920 | NVLVPSRPPRNPYD [BAC03435 232-246]
12 | 1450 | PAAPPRRPPQSASS [Q02080 268-282]
13 | 95.7 | NSAGISRPSRVSDA [P54296 461-474]
14 | 1720 | PALSPTRPPKKPLD [O60593 320-334]
15 | 27.2 | PAPRIKRPRLQVVK [Q9BR83 136-149]
16 | 39.5 | NSSSFKRPDGEMNI [O00463 504-517]
17 | 27.2 | ARNQLRRPQYRPQY [P16989 219-232]
18 | 143 | PAPSLPRPERKSIV [Q99941 295-308]
19 | 7270 | PAARPRRPPTTLPP [Q9HCM5 24-37]
20 | 792 | PAAPPKKPPRPGAP [Q05397 868-882]
21 | 141 | NTAKPTRPPSESSS [Q9Y2E7 460-474]

Row | normalised SPOT signal, Boehringer light units (BLU); mean over the file's lines of this peptide | Binder
22 | 45.8 | PARPPAKPPEDEPD [Q14184 101-115]
23 | 71.1 | PAPRLRRPGRVRPH [Q8WZ58 338-351]
24 | 50.4 | PAAAPRRPFSWEDV [O95696 687-700]
25 | 505 | NSFSPQKPPGHSSR [Q9BX63 202-216]
26 | 108 | PAVILRRPNQSQPL [Q92542 409-422]
27 | 18800 | NSSRPGRPPKRSLG [Q96NX9 174-188]
28 | 196 | PAGELSRPKKDMSD [P78325 461-474]
29 | 91.8 | ARLYLRRPAADGAE [Q14181 572-585]
30 | 2290 | NSHLLPRPLRHLAS [P47901 342-355]
31 | 430 | PAALLYRPVRQYVY [Q9NZB2 597-610]
32 | 256 | NTFHILRPTKAPGF [Q9Y2L0 734-747]
33 | 28.3 | PAQLPRRPAQRPGE [O00456 575-588]
34 | 0 | NSDTPPRPDRLPLD [Q05209 516-529]
35 | 165 | NSMGIKRPAPQPAS [O94830 308-321]
36 | 2200 | PAAPPKRPAVASAR [P27816 749-762]
37 | 81.5 | PAALLRRPGLGRLV [P30049 3-16]
38 | 105 | NVSSFRRPRRSSDK [Q9P2Y5 686-699]
39 | 98.4 | PASAFDRPARTRGQ [Q9H7P7 809-822]
40 | 176 | NSSHIKRPMNAFMV [Q9UN79 402-415]
41 | 36 | NYKNIKRPPGDIMF [Q9Y310 97-110]
42 | 92.9 | PASALPRPPRLSGS [Q9NQ45 25-38]

Target: T1, amphyphisin SH3 (AMPH_HUMAN), P49418
Assay: SPOT array

Row | normalised SPOT signal, Boehringer light units (BLU); mean over the file's lines of this peptide | Binder
43 | 78.8 | NSRNPRRPPPSSVN [Q96T16 198-211]
44 | 43.7 | PAPPPVKPPPSPVN [Q8TF74 224-238]
45 | 678 | ARLPPPRPQRPAET [Q9NQE0 226-239]
46 | 25.7 | ARPELRRPGVQGIP [Q9Y358 352-365]
47 | 57.1 | PAPGLRRPLSPPAA [Q9UK39 24-37]
48 | 11300 | PATAPARPLRLPSG [Q9UPV8 1233-1246]
49 | 497 | NSPTLERPGRKRKW [Q9H247 116-129]
50 | 37.6 | NVPIPERPPPVPPP [Q96BJ8 361-375]
51 | 21.1 | PAASPRRPAPRTGP [Q96S08 21-34]
52 | 49.5 | PAHPFRRPKLSGRS [Q9ULT6 397-410]
53 | 4650 | NVLVPSRPPRNPYD [BAC03435 232-246]
54 | 3320 | PAAPPRRPPQSASS [Q02080 268-282]
55 | 362 | NSAGISRPSRVSDA [P54296 461-474]
56 | 599 | PALSPTRPPKKPLD [O60593 320-334]
57 | 70.5 | PAPRIKRPRLQVVK [Q9BR83 136-149]
58 | 7.2 | NSSSFKRPDGEMNI [O00463 504-517]
59 | 13 | ARNQLRRPQYRPQY [P16989 219-232]
60 | 152 | PAPSLPRPERKSIV [Q99941 295-308]
61 | 109 | PAARPRRPPTTLPP [Q9HCM5 24-37]
62 | 2460 | PAAPPKKPPRPGAP [Q05397 868-882]
63 | 48.6 | NTAKPTRPPSESSS [Q9Y2E7 460-474]

Row | normalised SPOT signal, Boehringer light units (BLU); mean over the file's lines of this peptide | Binder
64 | 56.7 | PARPPAKPPEDEPD [Q14184 101-115]
65 | 71.5 | PAPRLRRPGRVRPH [Q8WZ58 338-351]
66 | 28 | PAAAPRRPFSWEDV [O95696 687-700]
67 | 43.8 | NSFSPQKPPGHSSR [Q9BX63 202-216]
68 | 16.5 | PAVILRRPNQSQPL [Q92542 409-422]
69 | 4020 | NSSRPGRPPKRSLG [Q96NX9 174-188]
70 | 105 | PAGELSRPKKDMSD [P78325 461-474]
71 | 43 | ARLYLRRPAADGAE [Q14181 572-585]
72 | 1620 | NSHLLPRPLRHLAS [P47901 342-355]
73 | 379 | PAALLYRPVRQYVY [Q9NZB2 597-610]
74 | 194 | NTFHILRPTKAPGF [Q9Y2L0 734-747]
75 | 29.4 | PAQLPRRPAQRPGE [O00456 575-588]
76 | 125 | NSDTPPRPDRLPLD [Q05209 516-529]
77 | 24.3 | NSMGIKRPAPQPAS [O94830 308-321]
78 | 64.4 | PAAPPKRPAVASAR [P27816 749-762]
79 | 4.9 | PAALLRRPGLGRLV [P30049 3-16]
80 | 2350 | NVSSFRRPRRSSDK [Q9P2Y5 686-699]
81 | 2010 | PASAFDRPARTRGQ [Q9H7P7 809-822]
82 | 37.1 | NSSHIKRPMNAFMV [Q9UN79 402-415]
83 | 19 | NYKNIKRPPGDIMF [Q9Y310 97-110]
84 | 4470 | PASALPRPPRLSGS [Q9NQ45 25-38]
